One assay concerns the target T1, AMPK (α1β1γ1) (Rattus norvegicus, UniProt P54645).
T1 construct: made in house; host or cells: bacteria (E. coli per the title of Neumann 2003)
As to the kind of experiment: Activation of bacterially expressed AMPK by upstream kinase, SAMS peptide assay. Particulars: recombinant AMPK α1β1γ1, MgATP, 30 min at 30° C. Type of assay: biochemical, mammalian. The method, then:
FIG. 4. Tos3p and LKB1 phosphorylate and activate AMPK in vitro. (A) Bacterially expressed AMPK (α1β1γ1 (Neumann, 2003)) was incubated with MgATP and GST-kinase bound to glutathione-Sepharose for 30 min at 30° C. Following centrifugation to remove the resin, AMPK activity in the supernatant was measured using the SAMS peptide assay (Davies, 1989).
The beads were removed by centrifugation, and proteins in the supernatant were analyzed by SDS-PAGE and autoradiography. Molecular size markers (kDa) are indicated. (C) Bacterially expressed AMPK (0.15 μg) was phosphorylated by GST-Tos3p and analysed by immunoblotting with anti-phosphothreonine 172 specific antibody (Cell Signalling Technologies). […]
Recombinant AMPK (α1β1γ1) expressed in bacteria (Neumann, 2003) was incubated with each of the kinases and MgATP, and AMPK activity was determined using the SAMS peptide assay. […]
Following centrifugation to remove the resin, AMPK activity in the supernatant was measured using the SAMS peptide assay (Davies, 1989).
Bacterially expressed AMPK (α1β1γ1) was purified by chromatography using Ni-NTA agarose (Qiagen) as previously described (the purification is as in Neumann et al., 2003 Protein Expression and Purification, incorporated herein by reference). […] Following brief centrifugation, the supernatant containing AMPK was removed and activity measured using the SAMS peptide assay (Davies et al., 1989). […]

For another assay, the system named is AMPK. As to the kind of experiment: Phosphorylation of T172 of AMPK by immunoblotting with anti-phosphothreonine 172 antibody. Format: biochemical, mammalian. The following applies: immunoblot. How it is done: The beads were removed by centrifugation, and proteins in the supernatant were analyzed by SDS-PAGE and autoradiography. Molecular size markers (kDa) are indicated. (C) Bacterially expressed AMPK (0.15 μg) was phosphorylated by GST-Tos3p and analysed by immunoblotting with anti-phosphothreonine 172 specific antibody (Cell Signalling Technologies). AMPK was also incubated with GST or partially purified rat liver AMPKK (Hawley, 1996).
Chain of AMPK (P54645 13-559 limits assumed): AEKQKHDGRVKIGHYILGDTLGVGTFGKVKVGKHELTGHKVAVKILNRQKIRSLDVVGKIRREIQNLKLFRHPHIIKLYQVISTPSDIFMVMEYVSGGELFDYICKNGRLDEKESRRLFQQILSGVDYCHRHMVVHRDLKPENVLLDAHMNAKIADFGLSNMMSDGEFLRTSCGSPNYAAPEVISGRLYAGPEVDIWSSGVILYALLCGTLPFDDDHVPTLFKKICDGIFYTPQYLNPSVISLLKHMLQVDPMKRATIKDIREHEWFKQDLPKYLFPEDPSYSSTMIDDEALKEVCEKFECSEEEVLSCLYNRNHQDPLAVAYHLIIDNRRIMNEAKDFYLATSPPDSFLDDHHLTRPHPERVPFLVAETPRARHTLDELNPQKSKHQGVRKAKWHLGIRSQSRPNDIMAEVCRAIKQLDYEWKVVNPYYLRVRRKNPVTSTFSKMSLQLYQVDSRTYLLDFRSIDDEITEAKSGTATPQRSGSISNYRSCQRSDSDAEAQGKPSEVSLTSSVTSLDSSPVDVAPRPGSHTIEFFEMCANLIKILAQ
Chain of AMPK (P80386 whole entry partner): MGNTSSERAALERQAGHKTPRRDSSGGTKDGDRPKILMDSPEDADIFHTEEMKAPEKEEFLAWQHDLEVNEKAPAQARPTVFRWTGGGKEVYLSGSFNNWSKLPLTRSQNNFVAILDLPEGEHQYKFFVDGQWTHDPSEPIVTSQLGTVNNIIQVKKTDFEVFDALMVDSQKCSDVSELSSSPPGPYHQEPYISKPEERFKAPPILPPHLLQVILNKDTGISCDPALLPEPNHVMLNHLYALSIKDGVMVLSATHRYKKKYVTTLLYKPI
Chain of AMPK (P80385 whole entry partner): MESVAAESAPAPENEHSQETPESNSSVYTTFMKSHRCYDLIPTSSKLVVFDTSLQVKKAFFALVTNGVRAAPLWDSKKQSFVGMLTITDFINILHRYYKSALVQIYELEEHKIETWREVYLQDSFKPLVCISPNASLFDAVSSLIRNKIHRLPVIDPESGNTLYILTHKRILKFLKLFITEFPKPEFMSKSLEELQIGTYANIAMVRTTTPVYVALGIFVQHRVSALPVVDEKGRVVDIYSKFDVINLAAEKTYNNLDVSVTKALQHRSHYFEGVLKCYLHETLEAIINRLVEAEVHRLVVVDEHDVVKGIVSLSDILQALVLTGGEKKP
Phosphorylation of T172 was determined by immunoblotting (FIG. 4E).
Bacterially expressed AMPK (α1β1γ1) was purified by chromatography using Ni-NTA agarose (Qiagen) as previously described (the purification is as in Neumann et al., 2003 Protein Expression and Purification, incorporated herein by reference). AMPK was incubated with 100 μM ATP, 5 mM MgCl2, 200 μM AMP and 1 mM DTT in 50 mM Hepes, pH 7.4 in the presence or absence of upstream kinase for 30 min at 30° C. Following brief centrifugation, the supernatant containing AMPK was removed and activity measured using the SAMS peptide assay (Davies et al., 1989). Phosphorylation of T172 was determined by Western blotting using an antibody that specifically recognizes phospho-threonine 172 within the α subunit of AMPK (Cell Signaling Technologies).

T1 sequence (P54645 13-559 limits assumed): as the sequence (P54645 13-559 limits assumed) above
T1 sequence (P80386 whole entry partner): as the sequence (P80386 whole entry partner) above
T1 sequence (P80385 whole entry partner): as the sequence (P80385 whole entry partner) above

B1: LKB1: FLAG-tagged full length wild-type mouse LKB1 tumor suppressor kinase purified from COS7 cell lysates (protein, UniProt Q9WTK7 1-436, looked up)
chain: MDVADPEPLGLFSEGELMSVGMDTFIHRIDSTEVIYQPRRKRAKLIGKYLMGDLLGEGSYGKVKEVLDSETLCRRAVKILKKKKLRRIPNGEANVKKEIQLLRRLRHRNVIQLVDVLYNEEKQKMYMVMEYCVCGMQEMLDSVPEKRFPVCQAHGYFRQLIDGLEYLHSQGIVHKDIKPGNLLLTTNGTLKISDLGVAEALHPFAVDDTCRTSQGSPAFQPPEIANGLDTFSGFKVDIWSAGVTLYNITTGLYPFEGDNIYKLFENIGRGDFTIPCDCGPPLSDLLRGMLEYEPAKRFSIRQIRQHSWFRKKHPLAEALVPIPPSPDTKDRWRSMTVVPYLEDLHGRAEEEEEEDLFDIEDGIIYTQDFTVPGQVLEEEVGQNGQSHSLPKAVCVNGTEPQLSSKVKPEGRPGTANPARKVCSSNKIRRLSACKQQ
modifications: full-length FLAG tag
notes: FLAG-tagged full length wild-type mouse LKB1 tumor suppressor kinase purified from COS7 cell lysates
In the case of B1, the “AMPK activity after incubation with upstream kinase” value with AMPK (α1β1γ1) is listed as “activated recombinant AMPK”. The “Phosphorylation of AMPK on T172” value in the assay with AMPK was “phosphorylated T172”.

Source of the values: patent US20050026233A1, “Methods of monitoring and modulating LKB1 activity and its downstream targets” (Medical Research Council, priority 2003, published 2005).
